Experimental data taken from paper PMC6765224, “Stereospecificity control in aminoacyl-tRNA-synthetases: new evidence of D-amino acids activation and editing” (Nucleic Acids Research, 2019).

Columns and labels:
Test in all cases: purified protein
purified protein [1] = substrate: C[C@H](N)C(=O)O; conditions: amino acid activation, pH 7.5
purified protein [2] = substrate: N[C@@H](CO)C(=O)O; conditions: amino acid activation
purified protein [3] = substrate: C[C@@H](N)C(=O)O; conditions: amino acid activation, pH 7.5
purified protein [4] = substrate: NCC(=O)O; format: biochemical, Thermus thermophilus; conditions: amino acid activation, 4 mM ATP, 1 mM PPi, 10 mM MgCl2, pH 7.5, 60 °C
purified protein [5] = substrate: N[C@@H](Cc1ccc(O)cc1)C(=O)O; format: biochemical, Thermus thermophilus; conditions: amino acid activation, 4 mM ATP, 1 mM PPi, 10 mM MgCl2, pH 7.5, 60 °C
purified protein [6] = substrate: N[C@H](Cc1ccc(O)cc1)C(=O)O; format: biochemical, Thermus thermophilus; conditions: amino acid activation, 4 mM ATP, 1 mM PPi, 10 mM MgCl2, pH 7.5, 60 °C
[7] = editing-deficient mutant, 37.0 °C
[8] = 4 mM ATP, 1 mM PPi, 10 mM MgCl2, pH 7.5, 60 °C, 60.0 °C
[9] = 4 mM ATP, 1 mM PPi, 10 mM MgCl2, pH 7.5, 60 °C, pH 7.5, 60.0 °C

B1: E. coli C666A AlaRS (Escherichia coli K-12; C666A) (protein)
chain: SKSTAEIRQAFLDFFHSKGHQVVASSSLVPHNDPTLLFTNAGMNQFKDVFLGLDKRNYSRATTSQRCVRAGGKHNDLENVGYTARHHTFFEMLGNFSFGDYFKHDAIQFAWELLTSEKWFALPKERLWVTVYESDDEAYEIWEKEVGIPRERIIRIGDNKGAPYASDNFWQMGDTGPCGPCTEIFYDHGDHIWGGPPGSPEEDGDRYIEIWNIVFMQFNRQADGTMEPLPKPSVDTGMGLERIAAVLQHVNSNYDIDLFRTLIQAVAKVTGATDLSNKSLRVIADHIRSCAFLIADGVMPSNENRGYVLRRIIRRAVRHGNMLGAKETFFYKLVGPLIDVMGSAGEDLKRQQAQVEQVLKTEEEQFARTLERGLALLDEELAKLSGDTLDGETAFRLYDTYGFPVDLTADVCRERNIKVDEAGFEAAMEEQRRRAREASGFGADYNAMIRVDSASEFKGYDHLELNGKVTALFVDGKAVDAINAGQEAVVVLDQTPFYAESGGQVGDKGELKGANFSFAVEDTQKYGQAIGHIGKLAAGSLKVGDAVQADVDEARRARIRLNHSATHLMHAALRQVLGTHVSQKGSLVNDKVLRFDFSHNEAMKPEEIRAVEDLVNTQIRRNLPIETNIMDLEAAKAKGAMALFGEKYDERVRVLSMGDFSTELAGGTHASRTGDIGLFRIISESGTAAGVRRIEAVTGEGAIATVHADSDRLSEVAHLLKGDSNNLADKVRSVLERTRQLEKELQQLKEQAAAQESANLSSKAIDVNGVKLLVSELSGVEPKMLRTMVDDLKNQLGSTIIVLATVVEGKVSLIAGVSKDVTDRVKAGELIGMVAQQVGGKGGGRPDMAQAGGTDAAALPAALASVKGWVSAKLQ
Purified protein [1]; [7]
  Km: 304 ± 43 µM
  kcat: 0.18 s⁻¹
  kcat/Km: 600 M⁻¹ s⁻¹
Purified protein [2]; editing-deficient mutant
  Km: 27000 ± 6000 µM
  kcat: 0.147 ± 0.04 s⁻¹
Purified protein [3]; [7]
  Km: 60000 ± 20000 µM
  kcat: 0.1 s⁻¹
  kcat/Km: 1.8 M⁻¹ s⁻¹

B2: AlaRSTT (Thermus thermophilus alanyl-tRNA-synthetase) (Thermus thermophilus HB27) (protein)
chain: MRTAEIREKFLSFFEGKGHLRLPSFSLIPEDDPSLLFTSAGMAPLKPYFLGAKPIFGGREWRRVTTCQECLRVGDIENVGRTSRHNTYFEMLGNFSFGDYFKKEAILWAWEFLTEHLRLDPGRLWVTVFEDDDEAYEIWRDLVGVPEERIGRFGEDENYWPGGAITHGPNGPSGPCSEIFYDRGPAYGTPDETGPNTGSGDRFVEIWNLVFTQYDRQGPIPGPGILKPLPQKNIDTGMGLYRVAAILQDVEDFYRTDTFFPIIQEVARMSGRPYEGKTSVSHRVIADHVRAVVAALSDGATFSNTGRGYVIRRLLRRALRHGYLLGLSDPFLHRLAPLVAELLGDFYPEMRENLPAVEKQIRLEEERFLETLEGGLKRLDALLSGLKPGEVLPGKEAFRLYDTYGFPLDLTVEIAAERGYGVDTEGFQKAMEEQQSRSRAAMAFEREIFKKGAQVLEELYAERGATEFLGYNALEAEAEVLALLAGDQSLLEAGPGTEVQVVLDKTPFYAEGGGQIGDFGLLEWPGGRARVETTRKTERGIFLHKARVEEGVLRVGERVRAVVDPRRRDTERNHTATHLLHAALRAVLGPHVRQAGSLVAPDRLRFDFTHPEPLKPEELERVELLVNRWIMADFPVTWRYMPLEEARKEGAMALFGEKYGEVVRVVRVEGSPLEGLESKELCGGCHVRRTGEIGAFLIRSEEAVSAGVRRIEAVTGEEAIRFARGSLNRLKALAERLEVGEAALEERLEKLLAELKEKEREVESLKARLVQAALGGGGGASLEEKGGLRWTVAELPGLDAKALRQAADDLVARGADVALVLSGGQAVLKLSPKAQGMGLEAGALFRALAEKAGGRGGGKGALAQGGGLDPRKAREALPGLLP
notes: His-tagged, pET28b, expressed in E. coli BL21(DE3)Star; wild type
Purified protein [1]; [8]
  Km: 139 ± 12 µM
  kcat: 7.88 s⁻¹
  kcat/Km: 56000 M⁻¹ s⁻¹
Purified protein [2]; [9]
  Km: 10000 ± 2000 µM
  kcat: 2.3 s⁻¹
  kcat/Km: 236 M⁻¹ s⁻¹
Purified protein [3]; [8]
  Km: 2190 ± 500 µM
  kcat: 0.21 s⁻¹
  kcat/Km: 120 M⁻¹ s⁻¹
Purified protein [4]
  Km: 22000 ± 8000 µM
  kcat: 6.5 ± 1.6 s⁻¹
  kcat/Km: 290 M⁻¹ s⁻¹

B3: TyrRSTT (T. thermophilus tyrosyl-tRNA-synthetase) (Thermus thermophilus HB27) (protein)
chain: MAGTGHTPEEALALLKRGAEEIVPEEELLAKLKEGRPLTVKLGADPTRPDLHLGHAVVLRKMRQFQELGHKVVLIIGDFTGMIGDPSGRSKTRPPLTLEETRENAKTYVAQAGKILRQEPHLFELRYNSEWLEGLTFKEVVRLTSLMTVAQMLEREDFKKRYEAGIPISLHELLYPFAQAYDSVAIRADVEMGGTDQRFNLLVGREVQRAYGQSPQVCFLMPLLVGLDGREKMSKSLDNYIGLTEPPEAMFKKLMRVPDPLLPSYFRLLTDLEEEEIEALLKAGPVPAHRVLARLLTAAYALPQIPPRIDRAFYESLGYAWEAFGRDKEAGPEEVRRAEARYDEVAKGGIPEEIPEVTIPASELKEGRIWVARLFTLAGLTPSNAEARRLIQNRGLRLDGEVLTDPMLQVDLSRPRILQRGKDRFVRVRLSD
notes: wild type
Purified protein [5]
  Km: 9 ± 2 µM
  kcat: 17.4 ± 3.9 s⁻¹
  kcat/Km: 1.93e+06 M⁻¹ s⁻¹
Purified protein [6]
  Km: 27.6 ± 7.5 µM
  kcat: 2.2 ± 0.65 s⁻¹
  kcat/Km: 80000 M⁻¹ s⁻¹
